Data reported in publication PMC3648612 (Nature structural & molecular biology, 2013).

T1: Med12 (Srb8), S. cerevisiae (S. cerevisiae, UniProt P25648 1-1427)
T1 sequence: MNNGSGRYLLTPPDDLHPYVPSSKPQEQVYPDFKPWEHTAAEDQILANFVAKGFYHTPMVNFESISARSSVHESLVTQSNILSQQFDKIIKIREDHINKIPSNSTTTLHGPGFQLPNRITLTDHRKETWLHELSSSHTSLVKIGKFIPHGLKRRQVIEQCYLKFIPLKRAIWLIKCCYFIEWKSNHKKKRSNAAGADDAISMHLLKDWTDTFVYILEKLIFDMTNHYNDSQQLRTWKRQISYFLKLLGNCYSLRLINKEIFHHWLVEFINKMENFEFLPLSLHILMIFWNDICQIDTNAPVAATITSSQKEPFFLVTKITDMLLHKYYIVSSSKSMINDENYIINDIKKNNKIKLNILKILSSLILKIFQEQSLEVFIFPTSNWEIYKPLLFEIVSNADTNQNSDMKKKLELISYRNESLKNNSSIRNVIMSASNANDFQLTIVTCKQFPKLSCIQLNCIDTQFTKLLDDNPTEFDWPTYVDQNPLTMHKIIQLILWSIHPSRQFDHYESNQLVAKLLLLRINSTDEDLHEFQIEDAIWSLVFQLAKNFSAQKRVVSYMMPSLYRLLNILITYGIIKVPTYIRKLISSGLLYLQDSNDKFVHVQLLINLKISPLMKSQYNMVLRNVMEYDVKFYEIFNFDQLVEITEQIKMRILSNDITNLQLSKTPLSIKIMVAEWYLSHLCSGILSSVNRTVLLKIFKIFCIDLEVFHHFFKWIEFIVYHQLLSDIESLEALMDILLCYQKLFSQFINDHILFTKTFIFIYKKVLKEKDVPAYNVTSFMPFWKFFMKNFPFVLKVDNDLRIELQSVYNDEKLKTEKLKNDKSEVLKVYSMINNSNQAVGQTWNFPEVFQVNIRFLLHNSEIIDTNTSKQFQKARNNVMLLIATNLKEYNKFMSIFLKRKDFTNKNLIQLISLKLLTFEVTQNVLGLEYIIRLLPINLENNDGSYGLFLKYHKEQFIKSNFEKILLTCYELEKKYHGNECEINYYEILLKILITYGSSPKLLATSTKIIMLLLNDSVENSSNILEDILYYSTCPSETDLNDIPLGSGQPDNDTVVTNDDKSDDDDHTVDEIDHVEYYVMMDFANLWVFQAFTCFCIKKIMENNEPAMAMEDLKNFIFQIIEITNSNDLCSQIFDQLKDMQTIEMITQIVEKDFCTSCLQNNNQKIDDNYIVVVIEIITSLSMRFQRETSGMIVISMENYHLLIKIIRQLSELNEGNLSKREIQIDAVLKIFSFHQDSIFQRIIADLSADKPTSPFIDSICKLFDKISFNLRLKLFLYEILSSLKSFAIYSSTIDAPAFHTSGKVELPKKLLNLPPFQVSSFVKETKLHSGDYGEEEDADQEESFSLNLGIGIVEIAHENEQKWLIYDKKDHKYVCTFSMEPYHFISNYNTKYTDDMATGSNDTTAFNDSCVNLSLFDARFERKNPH

T2: Cdk8 (Srb10) with a C-terminal TAP tag, S. cerevisiae (S. cerevisiae, UniProt P39073 1-555)
T2 sequence: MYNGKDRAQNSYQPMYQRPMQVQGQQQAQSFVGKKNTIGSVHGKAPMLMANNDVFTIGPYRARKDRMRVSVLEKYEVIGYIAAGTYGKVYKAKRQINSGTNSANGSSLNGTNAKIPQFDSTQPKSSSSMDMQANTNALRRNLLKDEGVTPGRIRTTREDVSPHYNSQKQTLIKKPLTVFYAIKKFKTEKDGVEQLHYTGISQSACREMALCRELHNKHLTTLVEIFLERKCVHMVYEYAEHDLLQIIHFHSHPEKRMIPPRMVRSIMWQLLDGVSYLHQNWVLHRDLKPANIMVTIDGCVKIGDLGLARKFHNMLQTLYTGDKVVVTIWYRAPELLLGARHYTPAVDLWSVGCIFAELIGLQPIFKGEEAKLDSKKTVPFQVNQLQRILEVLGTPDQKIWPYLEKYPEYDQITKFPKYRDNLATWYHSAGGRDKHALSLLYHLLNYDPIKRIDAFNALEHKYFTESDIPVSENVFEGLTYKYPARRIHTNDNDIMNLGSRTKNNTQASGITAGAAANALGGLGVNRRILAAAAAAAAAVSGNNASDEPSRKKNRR


Key:
[1] = biological target: T1, Med12 (Srb8), S. cerevisiae; experiment: cryo-EM structure
[2] = biological target: T2, Cdk8 (Srb10) with a C-terminal TAP tag, …; experiment: tandem affinity purification

Row | binding result [1] | binding result [2] | Binder
1 | binds |  | Med13 (Srb9), S. cerevisiae (natural protein) MSSDASTYRLEDVLSSFYRVEKIKKINYHQYISKAQNDQWSIQMEFMLRKQDPKTLVALLSRDLWCFSINDDPVPTPPAIEHKPVSPDKIGTFTADYSKPNLPPHYALFLKALRRKIYINLALGSHNKLIQFGNACISLSGVPNYLVQLEPHLFVNGDLTVSLCAKNMGLVPMKEENLEESFLSKHALYLAPSGIRMHLAPASKQGYLITPPKHTELLLTTLSVSHGINLQNKKNLKWVAVVPDLGHLNGHTPTIASYLTPLLEAKKLVWPLHLIFAQPVADIENSTSGDPSEFHCLQDALDAIDDFIQLKQTAAYRTPGSSGVLSSNIAGTNPLSSDGAYTEQFQHYKNNSISSQPASYHSVQETNKISPKDFSPNFTGIDKLMLSPSDQFAPAFLNTPNNNINENELFNDRKQTTVSNDLENSPLKTELEANGRSLEKVNNSVSKTGSVDTLHNKEGTLEQREQNENLPSDKSDSMVDKELFGEDEDEDLFGDSNKSNSTNESNKSISDEITEDMFEMSDEEENNNNKSINKNNKEMHTDLGKDIPFFPSSEKPNIRTMSGTTKRLNGKRKYLDIPIDEMTLPTSPLYMDPGAPLPVETPRDRRKSVFAPLNFNPIIENNVDNKYKSGGKFSFSPLQKEEALNFDISMADLSSSEEEEDEEENGSSDEDLKSLNVRDDMKPSDNISTNTNIHEPQYINYSSIPSLQDSIIKQENFNSVNDANITSNKEGFNSIWKIPQNDIPQTESPLKTVDSSIQPIESNIKMTLEDNNVTSNPSEFTPNMVNSEISNLPKDKSGIPEFTPADPNLSFESSSSLPFLLRHMPLASIPDIFITPTPVVTISEKEQDILDLIAEQVVTDYNILGNLGIPKIAYRGVKDCQEGLITTTMLQLFSTFDRLNGNDTISKFYNMKQPYVFVKKHHELIKVKHDSQPFIKFLNFRPPNGIKNFKSLLLSSSFKEDCLSFAPTLSQTYINQELGFCELLKLTNEDPPGLMYLKAFDKNKLLLLAAQIVSYCSNNKNSIKNVPPILIILPLDNATLTELVDKANIFQVIKNEVCAKMPNIELYLKVIPMDFIRNVLVTVDQYVNVAISIYNMLPPKSVKFTHIAHTLPEKVNFRTMQQQQMQQQQQQQQQQQNNSTGSSSIIYYDSYIHLAYSRSVDKEWVFAALSDSYGQGSMTKTWYVGNSRGKFDDACNQIWNIALNLASKKFGKICLILTRLNGILPDDELMNWRRLSGRNIHLAVVCVDDNSKISFIDEDKLYPSFKPIYKDTRFGGRMDMTRLYDYEIRDIDQDIHGIVFQHPFPLAHSQHRCAIRSGALIKFKKCDGDTVWDKFAVNLLNCPHSDSTQLLETILEEFRNLAALNVWYGLSDGEDGHIPWHILAVKKMMNTLVHTRVKIANTSAATVHTATSSSIILSDK
2 | binds | binds | CycC (Srb11), S. cerevisiae (natural protein) MSGSFWTSTQRHHWQYTKASLAKERQKLWLLECQLFPQGLNIVMDSKQNGIEQSITKNIPITHRDLHYDKDYNLRIYCYFLIMKLGRRLNIRQYALATAHIYLSRFLIKASVREINLYMLVTTCVYLACKVEECPQYIRTLVSEARTLWPEFIPPDPTKVTEFEFYLLEELESYLIVHHPYQSLKQIVQVLKQPPFQITLSSDDLQNCWSLINDSYINDVHLLYPPHIIAVACLFITISIHGKPTKGSSLASAASEAIRDPKNSSSPVQIAFNRFMAESLVDLEEVMDTIQEQITLYDHWDKYHEQWIKFLLHTLYLRPASAI
